Experimental data: PMC8100066 (2021)

Biological target: mouse CSL (amino acid residues 53-474), conserved and structurally ordered core domain (mouse, UniProt P31266 53-474)
Experiment: ITC

Chain of mouse CSL (amino acid residues 53-474), conserved and structurally ordered core domain (P31266 53-474): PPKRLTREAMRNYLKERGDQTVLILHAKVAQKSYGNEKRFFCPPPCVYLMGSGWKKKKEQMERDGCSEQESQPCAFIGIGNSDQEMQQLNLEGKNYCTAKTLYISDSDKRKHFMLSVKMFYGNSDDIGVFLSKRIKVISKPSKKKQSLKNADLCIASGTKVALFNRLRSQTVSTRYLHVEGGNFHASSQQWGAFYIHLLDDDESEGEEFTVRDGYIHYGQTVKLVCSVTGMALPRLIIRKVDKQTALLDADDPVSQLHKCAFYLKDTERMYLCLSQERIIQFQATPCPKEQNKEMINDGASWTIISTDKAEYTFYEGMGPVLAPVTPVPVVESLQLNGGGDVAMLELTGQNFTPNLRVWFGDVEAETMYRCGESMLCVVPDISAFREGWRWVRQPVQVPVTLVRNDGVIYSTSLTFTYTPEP

Binder | Ka [M⁻¹]
ARRKREHSTLWFPEGFKV [human NOTCH3 RAM peptide (residues 1665-1682), nonphosphorylated] | 5.49e+06
VLLSRKRRRQHGQLWFPEGFKVSEASKK [human NOTCH1 RAM peptide (residues 1754-1781)] | 4.63e+07
